Laboratory results reported in patent publication US9688732B2, “Extracellular matrix metalloproteinase inducer (EMMPRIN) peptides and binding antibodies” (Rappaport Family Institute for Research in the Medical …, priority 2012, dated 2017).

Biological target: T1, Mouse recombinant EMMPRIN (mrEMMPRIN) (Mus musculus, UniProt P18572)
T1 construct: mrEMMPRIN is a chimeric protein composed of the extracellular portion of EMMPRIN fused to the Fc portion of human IgG; purchased R&D Systems
Assay: Indirect ELISA, specificity of the antibodies to EMMPRIN
Settings: mrEMMPRIN 200 ng/ml coat; OD of Fc binding subtracted; n=4
Protocol: Indirect ELISA: This assay was developed to determine the specificity of the polyclonal antibodies for the EMMPRIN protein. Mouse recombinant EMMPRIN (mrEMMPRIN, 200 ng/ml in PBS, R&D Systems) or the Fc portion of the human IgG were applied on wells of a 96-well plate and incubated at 4° C. overnight to coat the wells. Excess antigens were removed by washing three times with wash buffer (0.05% Tween-20 in PBS), followed by blocking of the remaining free protein-binding sites with blocking buffer (1% BSA in PBS) for 2 hours at room temperature. After additional washes, strips of mouse recombinant EMMPRIN or Fc were coated with each of the primary antibodies (immune or pre-immune sera) diluted 1:500 and 1:5000 in PBS, and incubated for 2 hours at room temperature. […] The reaction was stopped with stop solution (0.25M HCL), and the absorbance of each well was measured at 450 nm and at a reference of 540 nm. […]
The specificity and ability of the antibodies to recognize mrEMMPRIN in its native structure were also tested by indirect ELISA, using mrEMMPRIN (200 ng/ml) or human IgG Fc protein (hFC, 200 ng/ml) to coat 96-well plates. […] P values were calculated by the Mann-Whitney T test. **, p<0.01, relative to pre-immune sera. […]

T1 sequence (P18572 with tags, fused parts or gaps isoform P18572-2 limits assumed): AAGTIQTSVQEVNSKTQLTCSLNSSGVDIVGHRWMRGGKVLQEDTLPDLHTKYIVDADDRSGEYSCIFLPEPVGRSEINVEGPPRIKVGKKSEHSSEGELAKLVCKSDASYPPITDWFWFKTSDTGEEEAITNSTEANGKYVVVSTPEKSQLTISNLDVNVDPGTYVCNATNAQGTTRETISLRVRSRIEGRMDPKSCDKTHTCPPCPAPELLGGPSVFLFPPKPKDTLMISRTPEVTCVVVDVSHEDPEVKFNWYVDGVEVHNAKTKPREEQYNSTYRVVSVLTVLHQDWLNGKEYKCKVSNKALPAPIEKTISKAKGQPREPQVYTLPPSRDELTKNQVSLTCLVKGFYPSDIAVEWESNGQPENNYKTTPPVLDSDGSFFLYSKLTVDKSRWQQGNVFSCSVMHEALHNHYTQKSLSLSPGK

GHRWMRGGKVLC [Peptide 161, 12aa peptide from the EC-I domain of mouse EMMPRIN]
Immune sera (OD values, indirect ELISA): 0.052 ± 0.026
